This test concerns the target human ErbB-3 (HER3), on cells (human) (UniProt P21860). Nature of the test: cell-based or functional assay.

B1: #Ab6 (antibody, from another filing, IgG1, V domains shown)
VH: EVQLLESGGGLVQPGGSLRLSCAASGFTFSHYVMAWVRQAPGKGLEWVSSISSSGGWTLYADSVKGRFTISRDNSKNTLYLQMNSLRAEDTAVYYCTRGLKMATIFDYWGQGTLVTVSS
VL: QSALTQPASVSGSPGQSITISCTGTSSDVGSYNVVSWYQQHPGKAPKLIIYEVSQRPSGVSNRFSGSKSGNTASLTISGLQTEDEADYYCCSYAGSSIFVIFGGGTKVTVL
Take B1: the BxPC3 % Inhibition is -7% and the MCF-7 IC50 (pM), HRG dependent proliferation turned out to be 504 pM.

Source of the values: patent US20210206875A1, “ERBB-2 TARGETING AGENT AND A BISPECIFIC ANTIBODY WITH ANTIGEN-BINDING SITES THAT BIND AN EPITOPE ON AN EXTRACELLULAR PART OF ERB-2 AND ERBB-3, FOR TREATMENT OF AN INDIVIDUAL WITH AN ERBB-2, ERBB-2/ERBB-3 POSITIVE TUMOUR” (Merus N.V., priority 2017, published 2021).
